Results: PMC3303803, “Identification of the First Functional Toxin-Antitoxin System in Streptomyces” (PLoS ONE, 2012)

T1: YefM-His6sl (antitoxin);YoeB-His6sl (toxin) (Streptomyces lividans 1326?;Streptomyces lividans 1326?), ORF:ca022027+Q9Z4V8
T1 sequence 1: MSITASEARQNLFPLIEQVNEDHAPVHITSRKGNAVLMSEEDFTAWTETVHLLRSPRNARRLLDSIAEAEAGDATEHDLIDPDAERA
T1 sequence 2: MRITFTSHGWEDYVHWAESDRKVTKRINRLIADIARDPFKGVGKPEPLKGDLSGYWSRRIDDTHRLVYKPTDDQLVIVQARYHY

T2: YefMsl-YoeBsl antitoxin (untagged YefM of natural complex);YoeB-His6sl (toxin) (Streptomyces lividans 1326?;Streptomyces lividans 1326?), ORF:ca022027+Q9Z4V8
T2 sequence 1: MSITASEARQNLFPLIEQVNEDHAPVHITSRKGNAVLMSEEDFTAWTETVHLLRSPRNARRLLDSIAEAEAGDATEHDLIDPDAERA
T2 sequence 2: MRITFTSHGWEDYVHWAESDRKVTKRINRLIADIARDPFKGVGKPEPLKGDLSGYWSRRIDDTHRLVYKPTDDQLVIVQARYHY

T3: S. lividans antitoxin YefM-His6sl (Streptomyces lividans, UniProt Q9Z4V7 1-87)
T3 construct: YefMsl, putative antitoxin of the yefM/yoeBsl operon of Streptomyces lividans 1326; identical to S. coelicolor SCO2235 (YefMsc); 9.7 kDa; Cloned with primers LS-005/LS-022 between NdeI and XhoI of pET22b; also called YefMsl; source: E. coli BL21 (DE3), pET22b-Anti, purified (NTA-Ni, dialysis); not shown: His6, C-terminal, kept
T3 sequence (looked up): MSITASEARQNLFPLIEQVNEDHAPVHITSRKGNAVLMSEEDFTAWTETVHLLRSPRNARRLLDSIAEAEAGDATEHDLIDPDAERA


Experiments:
[1] = test system: T1, YefM-His6sl (antitoxin);YoeB-His6sl (toxin) (Streptomyces lividans 1326?;Streptomyces lividans 1326?), ORF:ca022027+Q9Z4V8; assay: EMSA
[2] = test system: T2, YefMsl-YoeBsl antitoxin (untagged YefM of natural complex);YoeB-His6sl (toxin) (Streptomyces lividans 1326?;Streptomyces lividans 1326?), ORF:ca022027+Q9Z4V8; assay: EMSA
[3] = target: T3, S. lividans antitoxin YefM-His6sl; assay: native gel or EMSA; settings: both partners purified

Molecule	binding [1]	binding [2]	binding result [3]
TTTTTTCATATGACCAGTGCCTCCCTTCCTCGGCTGGTACAAGATATCGTACGAGTCTGGGACGGTCCACCGGAAAGCGGGAGCGGTACGTCCCGGCGCCCGCACGCCGTTCCCCGGCTACGCTCAGCCCGTACGACCTTGATCCGACCGGGCCCACGTGCCCCGCAGCCCGACAGGAGGCCGAGAATTCAAAAAA (double strand) [TA promoter (yefM/yoeBsl intergenic region)]	binds	binds	–
S. lividans toxin YoeB-His6sl (natural protein, Streptomyces lividans, UniProt Q9Z4V8 1-84, looked up, also called YoeBsl; toxin-His6; not shown: His6, C-terminal, kept) MRITFTSHGWEDYVHWAESDRKVTKRINRLIADIARDPFKGVGKPEPLKGDLSGYWSRRIDDTHRLVYKPTDDQLVIVQARYHY	–	–	binds
